From the RNAGym collection of RNA variant scans (doi:10.1093/molbev/msab373) come the findings set out here.

B1: Azoarcus group I ribozyme (parent)
chain: GUGCCUUGCGCCGGGAAACCACGCAAGGGAUGGUGUCAAAUUCGGCGAAACCUAAGCGCCCGCCCGGGCGUAUGGCAACGCCGAGCCAAGCUUCGGCGCCUGCGCCGAUGAAGGUGUAGAGACUAGACGGCACCCACCUAAGGCAAACGCUAUGGUGAAGGCAUAGUCCAGGGAGUGGCGAAAGUCACACAAACCGG

In this series the parent is B1. Description: reverse-splicing fitness (ratio to wild type); higher = more active; in vitro selection; Mg2+ level not given. The method in brief: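 An in vitro group I ribozyme library with randomized positions was T7-transcribed and gel-purified. In triplicate, 10 pmol RNA in EPPS pH 7.5 was reacted with 50 pmoles of a 30-nt RNA substrate for 1 h at 37 °C across several added MgCl2 levels (1–48 mM), then stopped with EDTA. Products were reverse transcribed from a substrate-complementary primer, PCR-amplified and sequenced (HiSeq 4000). Fitness is a variant's read proportion after selection over that before, normalised to wild type.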
For GUGCCUUGCGCCGGGAAACCACGCAAGGGAUGGUGUCAAAUUCGGCGAAACCUAAGCGCCCGCCCGGGCGUAUGGCAACGCUGAGCCAAGCUUCGGCGCCUGCGCCGAUGUAGGUGUAGCGACUAGACGGCACCCACCUAAGGCCAACGUUAUGGUGAAGGCAUAGUCGAGGGAGAGGCGAAAGUCACACAAACCGG, the reverse-splicing fitness was found to be 0.0175.

GUGCCUUGCGCCGGGAAACCACGCAAGGGAUGGUGUCAAAUUCGGCGAAACCUAAGCGCCCGCCCGGGCGUAUGGCAACGCAGAGCCAAGCUUCGGCGCCUGCGCCGAUGUAGGUGUAGUGACUAGACGGCACCCACCUAAGGCAAACGAUAUGGUGAAGGCAUAGUCUAGGGAGAGGCGAAAGUCACACAAACCGG: the reverse-splicing fitness is 0.00587.

For GUGCCUUGCGCCGGGAAACCACGCAAGGGAUGGUGUCAAAUUCGGCGAAACCUAAGCGCCCGCCCGGGCGUAUGGCAACGCCGAGCCAAGCUUCGGCGCCUGCGCCGAUGGAGGUGUAGAGACUAGACGGCACCCACCUAAGGCCAACGAUAUGGUGAAGGCAUAGUCUAGGGAGGGGCGAAAGUCACACAAACCGG, the reverse-splicing fitness was 0.00473.

Consider GUGCCUUGCGCCGGGAAACCACGCAAGGGAUGGUGUCAAAUUCGGCGAAACCUAAGCGCCCGCCCGGGCGUAUGGCAACGCAGAGCCAAGCUUCGGCGCCUGCGCCGAUGAAGGUGUAGUGACUAGACGGCACCCACCUAAGGCGAACGCUAUGGUGAAGGCAUAGUCUAGGGAGGGGCGAAAGUCACACAAACCGG, for which the reverse-splicing fitness came out at 0.00139.

In the case of GUGCCUUGCGCCGGGAAACCACGCAAGGGAUGGUGUCAAAUUCGGCGAAACCUAAGCGCCCGCCCGGGCGUAUGGCAACGCUGAGCCAAGCUUCGGCGCCUGCGCCGAUGGAGGUGUAGGGACUAGACGGCACCCACCUAAGGCGAACGUUAUGGUGAAGGCAUAGUCGAGGGAGCGGCGAAAGUCACACAAACCGG, the reverse-splicing fitness is 0.0168.

In the case of GUGCCUUGCGCCGGGAAACCACGCAAGGGAUGGUGUCAAAUUCGGCGAAACCUAAGCGCCCGCCCGGGCGUAUGGCAACGCUGAGCCAAGCUUCGGCGCCUGCGCCGAUGGAGGUGUAGAGACUAGACGGCACCCACCUAAGGCUAACGCUAUGGUGAAGGCAUAGUCCAGGGAGAGGCGAAAGUCACACAAACCGG, the reverse-splicing fitness was found to be 0.204.

For GUGCCUUGCGCCGGGAAACCACGCAAGGGAUGGUGUCAAAUUCGGCGAAACCUAAGCGCCCGCCCGGGCGUAUGGCAACGCUGAGCCAAGCUUCGGCGCCUGCGCCGAUGUAGGUGUAGGGACUAGACGGCACCCACCUAAGGCGAACGCUAUGGUGAAGGCAUAGUCGAGGGAGCGGCGAAAGUCACACAAACCGG, the reverse-splicing fitness is 0.027.

Regarding GUGCCUUGCGCCGGGAAACCACGCAAGGGAUGGUGUCAAAUUCGGCGAAACCUAAGCGCCCGCCCGGGCGUAUGGCAACGCUGAGCCAAGCUUCGGCGCCUGCGCCGAUGCAGGUGUAGCGACUAGACGGCACCCACCUAAGGCUAACGUUAUGGUGAAGGCAUAGUCGAGGGAGUGGCGAAAGUCACACAAACCGG, the reverse-splicing fitness came out at 0.00745.

Turning to GUGCCUUGCGCCGGGAAACCACGCAAGGGAUGGUGUCAAAUUCGGCGAAACCUAAGCGCCCGCCCGGGCGUAUGGCAACGCAGAGCCAAGCUUCGGCGCCUGCGCCGAUGAAGGUGUAGGGACUAGACGGCACCCACCUAAGGCAAACGCUAUGGUGAAGGCAUAGUCCAGGGAGGGGCGAAAGUCACACAAACCGG, the reverse-splicing fitness was 0.00511.

For the variant GUGCCUUGCGCCGGGAAACCACGCAAGGGAUGGUGUCAAAUUCGGCGAAACCUAAGCGCCCGCCCGGGCGUAUGGCAACGCCGAGCCAAGCUUCGGCGCCUGCGCCGAUGGAGGUGUAGUGACUAGACGGCACCCACCUAAGGCUAACGAUAUGGUGAAGGCAUAGUCGAGGGAGUGGCGAAAGUCACACAAACCGG, the reverse-splicing fitness came out at 0.00763.

For the variant GUGCCUUGCGCCGGGAAACCACGCAAGGGAUGGUGUCAAAUUCGGCGAAACCUAAGCGCCCGCCCGGGCGUAUGGCAACGCUGAGCCAAGCUUCGGCGCCUGCGCCGAUGAAGGUGUAGGGACUAGACGGCACCCACCUAAGGCAAACGCUAUGGUGAAGGCAUAGUCGAGGGAGUGGCGAAAGUCACACAAACCGG, the reverse-splicing fitness stood at 0.0242.

Regarding GUGCCUUGCGCCGGGAAACCACGCAAGGGAUGGUGUCAAAUUCGGCGAAACCUAAGCGCCCGCCCGGGCGUAUGGCAACGCCGAGCCAAGCUUCGGCGCCUGCGCCGAUGGAGGUGUAGUGACUAGACGGCACCCACCUAAGGCUAACGUUAUGGUGAAGGCAUAGUCUAGGGAGCGGCGAAAGUCACACAAACCGG, the reverse-splicing fitness is 0.0168.

GUGCCUUGCGCCGGGAAACCACGCAAGGGAUGGUGUCAAAUUCGGCGAAACCUAAGCGCCCGCCCGGGCGUAUGGCAACGCUGAGCCAAGCUUCGGCGCCUGCGCCGAUGAAGGUGUAGAGACUAGACGGCACCCACCUAAGGCAAACGGUAUGGUGAAGGCAUAGUCAAGGGAGCGGCGAAAGUCACACAAACCGG: the reverse-splicing fitness was 0.01.

Turning to GUGCCUUGCGCCGGGAAACCACGCAAGGGAUGGUGUCAAAUUCGGCGAAACCUAAGCGCCCGCCCGGGCGUAUGGCAACGCAGAGCCAAGCUUCGGCGCCUGCGCCGAUGCAGGUGUAGUGACUAGACGGCACCCACCUAAGGCGAACGUUAUGGUGAAGGCAUAGUCGAGGGAGAGGCGAAAGUCACACAAACCGG, the reverse-splicing fitness was determined as 0.00597.

Consider GUGCCUUGCGCCGGGAAACCACGCAAGGGAUGGUGUCAAAUUCGGCGAAACCUAAGCGCCCGCCCGGGCGUAUGGCAACGCCGAGCCAAGCUUCGGCGCCUGCGCCGAUGAAGGUGUAGCGACUAGACGGCACCCACCUAAGGCUAACGCUAUGGUGAAGGCAUAGUCAAGGGAGAGGCGAAAGUCACACAAACCGG, for which the reverse-splicing fitness stood at 0.01.

Consider GUGCCUUGCGCCGGGAAACCACGCAAGGGAUGGUGUCAAAUUCGGCGAAACCUAAGCGCCCGCCCGGGCGUAUGGCAACGCUGAGCCAAGCUUCGGCGCCUGCGCCGAUGUAGGUGUAGUGACUAGACGGCACCCACCUAAGGCCAACGCUAUGGUGAAGGCAUAGUCGAGGGAGUGGCGAAAGUCACACAAACCGG, for which the reverse-splicing fitness came out at 0.00316.

For GUGCCUUGCGCCGGGAAACCACGCAAGGGAUGGUGUCAAAUUCGGCGAAACCUAAGCGCCCGCCCGGGCGUAUGGCAACGCUGAGCCAAGCUUCGGCGCCUGCGCCGAUGGAGGUGUAGUGACUAGACGGCACCCACCUAAGGCUAACGUUAUGGUGAAGGCAUAGUCCAGGGAGAGGCGAAAGUCACACAAACCGG, the reverse-splicing fitness stood at 0.00763.

Turning to GUGCCUUGCGCCGGGAAACCACGCAAGGGAUGGUGUCAAAUUCGGCGAAACCUAAGCGCCCGCCCGGGCGUAUGGCAACGCUGAGCCAAGCUUCGGCGCCUGCGCCGAUGAAGGUGUAGGGACUAGACGGCACCCACCUAAGGCGAACGGUAUGGUGAAGGCAUAGUCAAGGGAGCGGCGAAAGUCACACAAACCGG, the reverse-splicing fitness turned out to be 0.0121.

Consider GUGCCUUGCGCCGGGAAACCACGCAAGGGAUGGUGUCAAAUUCGGCGAAACCUAAGCGCCCGCCCGGGCGUAUGGCAACGCGGAGCCAAGCUUCGGCGCCUGCGCCGAUGGAGGUGUAGCGACUAGACGGCACCCACCUAAGGCGAACGCUAUGGUGAAGGCAUAGUCGAGGGAGGGGCGAAAGUCACACAAACCGG, for which the reverse-splicing fitness is 0.00476.

Consider GUGCCUUGCGCCGGGAAACCACGCAAGGGAUGGUGUCAAAUUCGGCGAAACCUAAGCGCCCGCCCGGGCGUAUGGCAACGCAGAGCCAAGCUUCGGCGCCUGCGCCGAUGUAGGUGUAGCGACUAGACGGCACCCACCUAAGGCAAACGUUAUGGUGAAGGCAUAGUCAAGGGAGAGGCGAAAGUCACACAAACCGG, for which the reverse-splicing fitness was found to be 0.0162.

In the case of GUGCCUUGCGCCGGGAAACCACGCAAGGGAUGGUGUCAAAUUCGGCGAAACCUAAGCGCCCGCCCGGGCGUAUGGCAACGCUGAGCCAAGCUUCGGCGCCUGCGCCGAUGCAGGUGUAGUGACUAGACGGCACCCACCUAAGGCCAACGUUAUGGUGAAGGCAUAGUCUAGGGAGAGGCGAAAGUCACACAAACCGG, the reverse-splicing fitness came to 0.00314.

As for GUGCCUUGCGCCGGGAAACCACGCAAGGGAUGGUGUCAAAUUCGGCGAAACCUAAGCGCCCGCCCGGGCGUAUGGCAACGCUGAGCCAAGCUUCGGCGCCUGCGCCGAUGCAGGUGUAGUGACUAGACGGCACCCACCUAAGGCUAACGUUAUGGUGAAGGCAUAGUCCAGGGAGCGGCGAAAGUCACACAAACCGG, the reverse-splicing fitness turned out to be 0.0089.

As to GUGCCUUGCGCCGGGAAACCACGCAAGGGAUGGUGUCAAAUUCGGCGAAACCUAAGCGCCCGCCCGGGCGUAUGGCAACGCGGAGCCAAGCUUCGGCGCCUGCGCCGAUGUAGGUGUAGAGACUAGACGGCACCCACCUAAGGCUAACGCUAUGGUGAAGGCAUAGUCCAGGGAGGGGCGAAAGUCACACAAACCGG, the reverse-splicing fitness is 0.0842.

In the case of GUGCCUUGCGCCGGGAAACCACGCAAGGGAUGGUGUCAAAUUCGGCGAAACCUAAGCGCCCGCCCGGGCGUAUGGCAACGCAGAGCCAAGCUUCGGCGCCUGCGCCGAUGCAGGUGUAGAGACUAGACGGCACCCACCUAAGGCGAACGUUAUGGUGAAGGCAUAGUCCAGGGAGCGGCGAAAGUCACACAAACCGG, the reverse-splicing fitness is 0.086.

Regarding GUGCCUUGCGCCGGGAAACCACGCAAGGGAUGGUGUCAAAUUCGGCGAAACCUAAGCGCCCGCCCGGGCGUAUGGCAACGCUGAGCCAAGCUUCGGCGCCUGCGCCGAUGUAGGUGUAGUGACUAGACGGCACCCACCUAAGGCCAACGGUAUGGUGAAGGCAUAGUCCAGGGAGUGGCGAAAGUCACACAAACCGG, the reverse-splicing fitness is 0.00588.

As for GUGCCUUGCGCCGGGAAACCACGCAAGGGAUGGUGUCAAAUUCGGCGAAACCUAAGCGCCCGCCCGGGCGUAUGGCAACGCCGAGCCAAGCUUCGGCGCCUGCGCCGAUGUAGGUGUAGGGACUAGACGGCACCCACCUAAGGCUAACGCUAUGGUGAAGGCAUAGUCCAGGGAGGGGCGAAAGUCACACAAACCGG, the reverse-splicing fitness is 0.00581.

Consider GUGCCUUGCGCCGGGAAACCACGCAAGGGAUGGUGUCAAAUUCGGCGAAACCUAAGCGCCCGCCCGGGCGUAUGGCAACGCCGAGCCAAGCUUCGGCGCCUGCGCCGAUGCAGGUGUAGAGACUAGACGGCACCCACCUAAGGCGAACGUUAUGGUGAAGGCAUAGUCGAGGGAGAGGCGAAAGUCACACAAACCGG, for which the reverse-splicing fitness is 0.0138.

For GUGCCUUGCGCCGGGAAACCACGCAAGGGAUGGUGUCAAAUUCGGCGAAACCUAAGCGCCCGCCCGGGCGUAUGGCAACGCCGAGCCAAGCUUCGGCGCCUGCGCCGAUGAAGGUGUAGUGACUAGACGGCACCCACCUAAGGCAAACGCUAUGGUGAAGGCAUAGUCAAGGGAGCGGCGAAAGUCACACAAACCGG, the reverse-splicing fitness stood at 0.00594.

Consider GUGCCUUGCGCCGGGAAACCACGCAAGGGAUGGUGUCAAAUUCGGCGAAACCUAAGCGCCCGCCCGGGCGUAUGGCAACGCUGAGCCAAGCUUCGGCGCCUGCGCCGAUGCAGGUGUAGAGACUAGACGGCACCCACCUAAGGCGAACGGUAUGGUGAAGGCAUAGUCUAGGGAGGGGCGAAAGUCACACAAACCGG, for which the reverse-splicing fitness turned out to be 0.0073.

As for GUGCCUUGCGCCGGGAAACCACGCAAGGGAUGGUGUCAAAUUCGGCGAAACCUAAGCGCCCGCCCGGGCGUAUGGCAACGCAGAGCCAAGCUUCGGCGCCUGCGCCGAUGCAGGUGUAGGGACUAGACGGCACCCACCUAAGGCUAACGAUAUGGUGAAGGCAUAGUCUAGGGAGGGGCGAAAGUCACACAAACCGG, the reverse-splicing fitness came out at 0.00563.
